# Test results reported in patent publication US20140294821.
# What was measured:
# [1] = tested on: rFVIIIFc (recombinant B-domain deleted human FVIII-Fc monomer hybrid), drug substance
# [2] = tested on: single chain rFVIIIFc (purified non-processed isoform of rFVIIIFc)
# [3] = tested on: rBDD FVIII (recombinant B-domain deleted FVIII lacking Fc moieties)
substance,measurement,setting,value
human α-thrombin,"release rate (RU/s) of rFVIIIFc from immobilized vWF against time, by α-thrombin concentration",[1],peak release rate grows and comes earlier with rising α-thrombin: uppermost trace (20 U/mL) peaks at about 145 RU/s near 3 s at 25 °C and at about 205 RU/s near 2 s at 37 °C
same,"release rate (RU/s) of SC rFVIIIFc from immobilized vWF against time, by α-thrombin concentration",[2],"peak release rate grows with rising α-thrombin: uppermost trace (20 U/mL) peaks at about 112 RU/s near 3 s at 37°C; the 25 °C panel as drawn peaks at about 145 RU/s near 3 s and looks the same as the rFVIIIFc 25 °C panel, which does not agree with Figure 16E (about 82 RU/s at 20 U/mL)"
same,loss of SPR response of vWF-bound rBDD FVIII after α-thrombin (double reference-subtracted release phase),[3],response falls faster and deeper with rising α-thrombin (0.005 to 20 U/mL): at 20 U/mL to about -415 RU at 120 s at 25 °C and to about -425 RU at 37°C; the lowest concentrations stay within about -60 RU of 0
same,"release rate (RU/s) of rBDD FVIII from immobilized vWF against time, by α-thrombin concentration",[3],peak release rate grows and comes earlier with rising α-thrombin: uppermost trace (20 U/mL) peaks at about 105 RU/s near 2 s at 25 °C and at about 157 RU/s near 2 s at 37 °C
activated Factor IX,FXa generation rate (nM/min) against FIXa concentration (Xase complex on phospholipid vesicles),[1],"FVIIIFc (circles, dashed Kd fits, two runs): rate rises from about 0.2 nM/min at about 0.25 nM FIXa to about 2.8 to 3.2 nM/min at 4 to 8 nM; the fits still rise at 8 nM (about 3.3), no upper plateau in the range shown"
same,FXa generation rate (nM/min) against FIXa concentration (Xase complex on phospholipid vesicles),[3],"BDD FVIII (triangles, solid Kd fits, two runs): rate rises from about 0.2 nM/min at about 0.25 nM FIXa to about 2.5 to 2.7 nM/min at about 5.6 nM, points at 8 nM about 2.0 to 2.1; the fits still rise at 8 nM (about 2.5 to 2.6), no upper plateau in the range shown"
same,"Km (nM) (called Kd in the text) of FXa generation rate as a function of FIXa concentration (thrombin-activated FVIII, 25% PS-75% PC vesicles)",[3],2.5 nM
same,Vmax (nM/min) of FXa generation rate as a function of FIXa concentration,[3],4 nM/min
activated protein C,FXa generation rate after thrombin activation and incubation with APC,[1],"Treatment with APC for 90 min led to a significant decrease in FXa generation rates, similar to non-activated samples, and these results were similar for rFVIIIFc DS, rBDD FVIII, and single chain rFVIIIFc"
same,FXa generation rate after thrombin activation and incubation with APC,[2],"Treatment with APC for 90 min led to a significant decrease in FXa generation rates, similar to non-activated samples, and these results were similar for rFVIIIFc DS, rBDD FVIII, and single chain rFVIIIFc"
same,FXa generation rate after thrombin activation and incubation with APC,[3],"Treatment with APC for 90 min led to a significant decrease in FXa generation rates, similar to non-activated samples, and these results were similar for rFVIIIFc DS, rBDD FVIII, and single chain rFVIIIFc"
